Measured values reported in FireProtDB (doi:10.1006/jmbi.1999.2772).

Details: Thermotoga maritima (strain ATCC 43589 / DSM 3109 / JCM 10099 / NBRC 100826 / MSB8), Thermal, DSC
[1] = pH 4, Sodium acetate 20 mM, reversible: yes
[2] = pH 4.5, Sodium acetate 20 mM, reversible: yes(94%)
[3] = pH 4.8, Sodium acetate 20 mM, reversible: yes(91%)
[4] = pH 5.7, Sodium cacodylate-HCl 20 mM, reversible: yes(97%)
[5] = pH 6, Sodium cacodylate-HCl 20 mM, reversible: yes(98%)
[6] = pH 6.1, Sodium cacodylate-HCl 20 mM, reversible: yes(97%)
[7] = pH 6.35, Sodium cacodylate-HCl 20 mM, reversible: yes
[8] = pH 6.75, Sodium cacodylate-HCl 20 mM, reversible: yes
[9] = pH 7, Sodium cacodylate-HCl 20 mM, reversible: yes(95%)
[10] = pH 7.2, Sodium phosphate 20 mM, reversible: yes(97%)
[11] = pH 7.25, Sodium cacodylate-HCl 20 mM, reversible: yes(98%)
[12] = pH 7.4, Sodium phosphate 20 mM, reversible: yes(98%)
[13] = pH 7.5, Sodium phosphate 20 mM, reversible: yes(97%)
[14] = pH 8.1, borate-NaOH 20 mM, reversible: yes(99%)
[15] = pH 8.4, borate-NaOH 20 mM, reversible: yes(97%)
[16] = pH 8.5, borate-NaOH 20 mM, reversible: yes(98%)
[17] = pH 8.9, borate-NaOH 20 mM, reversible: yes

Chain of Cold shock-like protein wild type, O54310 (O54310 whole entry): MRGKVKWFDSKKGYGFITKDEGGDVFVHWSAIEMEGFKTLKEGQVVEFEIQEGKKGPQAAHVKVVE

**Q.** Which Tm [1] does the source give for “Cold shock-like protein wild type, O54310” here?
**A.** 87.9 °C

**Q.** And the “heat capacity change of unfolding” value [1]?
**A.** 0.36 kcal/mol/K

**Q.** What about the “unfolding enthalpy (calorimetric)” value [1] of the same substance?
**A.** 50.1 kcal/mol

**Q.** And the Tm [2]?
**A.** 91.6 °C

**Q.** And the “heat capacity change of unfolding” value [2]?
**A.** 0.05 kcal/mol/K

**Q.** What about the “unfolding enthalpy (calorimetric)” value [2] of the same substance?
**A.** 56.2 kcal/mol

**Q.** What about the Tm [3] of the same substance?
**A.** 94.1 °C

**Q.** And the “heat capacity change of unfolding” value [3]?
**A.** 0.22 kcal/mol/K

**Q.** And the “unfolding enthalpy (calorimetric)” value [3]?
**A.** 62 kcal/mol

**Q.** And the “unfolding enthalpy (van 't Hoff)” value [3]?
**A.** 57 kcal/mol

**Q.** And the Tm [4]?
**A.** 93.3 °C

**Q.** What about the “heat capacity change of unfolding” value [4] of the same substance?
**A.** 0.08 kcal/mol/K

**Q.** What about the “unfolding enthalpy (calorimetric)” value [4] of the same substance?
**A.** 71.9 kcal/mol

**Q.** What about the “unfolding enthalpy (van 't Hoff)” value [4] of the same substance?
**A.** 68.3 kcal/mol

**Q.** And the Tm [5]?
**A.** 92.1 °C

**Q.** What about the “heat capacity change of unfolding” value [5] of the same substance?
**A.** 0.17 kcal/mol/K

**Q.** What about the “unfolding enthalpy (calorimetric)” value [5] of the same substance?
**A.** 74.6 kcal/mol

**Q.** What about the “unfolding enthalpy (van 't Hoff)” value [5] of the same substance?
**A.** 71 kcal/mol

**Q.** What about the Tm [6] of the same substance?
**A.** 91.2 °C

**Q.** And the “heat capacity change of unfolding” value [6]?
**A.** 0.55 kcal/mol/K

**Q.** What about the “unfolding enthalpy (calorimetric)” value [6] of the same substance?
**A.** 69.5 kcal/mol

**Q.** What about the “unfolding enthalpy (van 't Hoff)” value [6] of the same substance?
**A.** 64.5 kcal/mol

**Q.** What about the Tm [7] of the same substance?
**A.** 89.6 °C

**Q.** And the “heat capacity change of unfolding” value [7]?
**A.** 0.5 kcal/mol/K

**Q.** And the “unfolding enthalpy (calorimetric)” value [7]?
**A.** 68 kcal/mol

**Q.** What about the “unfolding enthalpy (van 't Hoff)” value [7] of the same substance?
**A.** 63 kcal/mol

**Q.** What about the Tm [8] of the same substance?
**A.** 85.8 °C

**Q.** What about the “heat capacity change of unfolding” value [8] of the same substance?
**A.** 0.18 kcal/mol/K

**Q.** And the “unfolding enthalpy (calorimetric)” value [8]?
**A.** 65 kcal/mol

**Q.** And the “unfolding enthalpy (van 't Hoff)” value [8]?
**A.** 58.3 kcal/mol

**Q.** And the Tm [9]?
**A.** 82 °C

**Q.** What about the “heat capacity change of unfolding” value [9] of the same substance?
**A.** 0.36 kcal/mol/K

**Q.** What about the “unfolding enthalpy (calorimetric)” value [9] of the same substance?
**A.** 62.6 kcal/mol

**Q.** And the “unfolding enthalpy (van 't Hoff)” value [9]?
**A.** 60.8 kcal/mol

**Q.** What about the Tm [10] of the same substance?
**A.** 83.1 °C

**Q.** What about the “heat capacity change of unfolding” value [10] of the same substance?
**A.** 0.22 kcal/mol/K

**Q.** What about the “unfolding enthalpy (calorimetric)” value [10] of the same substance?
**A.** 65.3 kcal/mol

**Q.** What about the “unfolding enthalpy (van 't Hoff)” value [10] of the same substance?
**A.** 61 kcal/mol

**Q.** What about the Tm [11] of the same substance?
**A.** 82.8 °C

**Q.** What about the “heat capacity change of unfolding” value [11] of the same substance?
**A.** 0.4 kcal/mol/K

**Q.** What about the “unfolding enthalpy (calorimetric)” value [11] of the same substance?
**A.** 61.3 kcal/mol

**Q.** What about the “unfolding enthalpy (van 't Hoff)” value [11] of the same substance?
**A.** 57.5 kcal/mol

**Q.** And the Tm [12]?
**A.** 80.8 °C

**Q.** What about the “heat capacity change of unfolding” value [12] of the same substance?
**A.** 0.38 kcal/mol/K

**Q.** And the “unfolding enthalpy (calorimetric)” value [12]?
**A.** 60.8 kcal/mol

**Q.** And the “unfolding enthalpy (van 't Hoff)” value [12]?
**A.** 55.7 kcal/mol

**Q.** And the Tm [13]?
**A.** 81.1 °C

**Q.** What about the “heat capacity change of unfolding” value [13] of the same substance?
**A.** 0.11 kcal/mol/K

**Q.** And the “unfolding enthalpy (calorimetric)” value [13]?
**A.** 54.4 kcal/mol

**Q.** What about the “unfolding enthalpy (van 't Hoff)” value [13] of the same substance?
**A.** 50.4 kcal/mol

**Q.** What about the Tm [14] of the same substance?
**A.** 81 °C

**Q.** What about the “heat capacity change of unfolding” value [14] of the same substance?
**A.** 0.01 kcal/mol/K

**Q.** What about the “unfolding enthalpy (calorimetric)” value [14] of the same substance?
**A.** 54.7 kcal/mol

**Q.** What about the “unfolding enthalpy (van 't Hoff)” value [14] of the same substance?
**A.** 51 kcal/mol

**Q.** What about the Tm [15] of the same substance?
**A.** 77.5 °C

**Q.** And the “heat capacity change of unfolding” value [15]?
**A.** 0.5 kcal/mol/K

**Q.** And the “unfolding enthalpy (calorimetric)” value [15]?
**A.** 56.1 kcal/mol

**Q.** What about the Tm [16] of the same substance?
**A.** 77.6 °C

**Q.** And the “heat capacity change of unfolding” value [16]?
**A.** 0.06 kcal/mol/K

**Q.** And the “unfolding enthalpy (calorimetric)” value [16]?
**A.** 53.9 kcal/mol

**Q.** And the “unfolding enthalpy (van 't Hoff)” value [16]?
**A.** 51.7 kcal/mol

**Q.** What about the Tm [17] of the same substance?
**A.** 75.5 °C

**Q.** And the “heat capacity change of unfolding” value [17]?
**A.** 0.5 kcal/mol/K

**Q.** What about the “unfolding enthalpy (calorimetric)” value [17] of the same substance?
**A.** 56.1 kcal/mol
